{
  "source": "the DeepSol protein solubility set",
  "data": [
    {"assay": "soluble on expression in E. coli; label from the status in PepcDB or PDB records", "values": [
      {"sequence": "MILKKDDRMYTKKPTIPENVIERAYKGKCTKEDALLLLEGNPFELFELANDLRAIAAGDTVSYVVNRNIYITNKCVGNCGFCAYRTEKGYILSIEEILKKAGDARKAGAVEVCVQGGYTPEADMEFYLEVIESLKAEYPDLCLHALSPMEVNYAAETSGMSVEEALRRLKKSGLDSLTGTSAEILSDRVRKIICPSKISTQQWIDTVTAAHKAGISTNATIMYGHVETLKERLDHVFTIREIQKETGGFTELIPMSFLPYNNPVGEKMLASGKFSSTGLEDLQLIAISRVILHTYVKNIQATWVKLGKKLAQVALQCGANDLGGTLMEDQISTASGGSHGEYVSPAEFEWMIKGAGRVPVQR", "soluble on expression in E. coli": "not soluble"},
      {"sequence": "MILQEAKIRAKELEIGAKSKYENETSKVIKEYESYLIKLEKQEAKNQQRLERETQQLEEERRRINHKQASLSGMIEELEKLKGDYRSKLTESLEILSRVAGLTQEEAKELALAKATEESRAQIAQIVRKYESEAKEEGRKRANYILAQATTRFAGEFAAERLINVVNLPNDELKGRIIGKEGRNIKTLEMLSGVDVIIDDTPGAIVLSSFNLYRRAIATRTIEALVEDGRIQPARIEEVYKKVEQEFEEKVLEEGEGIVLDMELGYVHPELKKLIGRLKYRASYGQNALGHSLEVANLAGVIAGELGGDVKLAKRAGLLHDIGKALTHDFGGSHVDLGAEVCSRYKEHPVVINAIFAHHGHEEAKSIESAAVCAADALSAARPGARREVLESFLKRVQEIEKIAMEKLGVRQAYAINAGREVRVIVNADLINDEESVLLAQEIAKEIETKVQYPGEIKVSVIREVRAVEFAK", "soluble on expression in E. coli": "not soluble"},
      {"sequence": "MILTTTHEIEGRRIERYLGIVFGEAIVGANVLRDLLAQIRDIVGGRSGAYEAELRRARETALAEMAEAARRLGADAVVGVDLDYEVLGSGNSMLMVTASGTAVKLAP", "soluble on expression in E. coli": "soluble"},
      {"sequence": "MILVTGFEPFGSLEHNPSQALLDLLPSEVDGKPLRKAVLPVDAEALGEALEDLHREGPKAVLHLGLAEDRPVLTLERLAVNLLDFPRPDNRGRVLEDLPIVPGGPLALPARFPVKPVLARWREAGIPGRPSLSAGSYLCNQAFYLSLYRLPEEVPVGFLHLPPDETLALKRPRPYVPLEVQARAVRLALEHL", "soluble on expression in E. coli": "soluble"},
      {"sequence": "MIMHIPKSTYYHKWFIGATLVVPVLPLAAQTSPNLVFIMADQYRGDALGCLGKEPVKTPCLDHLASEGVLFTNAVSSYPVSSPARAMLMTGMYPLHNKVTGNCNSQTAPYGVELPQEARCWSDVLKDMNYRTGYIGKWHLDSPYKPYVDTYNNRGKVAWNEWCPPERRHGFEYWTAYGTYDYHLKPMYWDTTAPRDSFYYVNQWGPAYEADKAIEYIQTQKENKQPFALVVSMNPPHTGYELVPDKYKALYKDIDVEALCAHRPDIPAKGTEMGNYFRNNIRNYYACITGVDEQVGRIIETLKSNGLFENTIIVFTSDHGICMGAHNNAGKDIFYEEAMRIPMIISWPAKIKPRKDDHLMIAFADLYPSLLSLMGFRKEIPETVQTFDLSRHILGKSKKEVVQPYYYVQFDNHATGYRGLRTSTHTFAVHATNGKIDETVLFDRTKDPYQMDNIAGQSPRLVRQFNKQLKAWLLHTNDSFAHYLETVTK", "soluble on expression in E. coli": "not soluble"},
      {"sequence": "MIMIFTSSCCDNLSIDEIIERAEKGDCEAQYIVGFYYNRDSAIDSPDDEKAFYWLKLAAEQGHCEAQYSLGQKYTEDKSRHKDNEQAIFWLKKAALQGHTFASNALGWTLDRGEAPNYKEAVVWYQIAAESGMSYAQNNLGWMYRNGNGVAKDYALAFFWYKQAALQGHSDAQNNLADLYEDGKGVAQNKTLAAFWYLKSAQQGNRHAQFQIAWDYNAGEGVDQDYKQAMYWYLKAAAQGSVGAYVNIGYMYKHGQGVEKDYQAAFEWFTKAAECNDATAWYNLAIMYHYGEGRPVDLRQALDLYRKVQSSGTRDVSQEIRETEDLLLEHHHHHH", "soluble on expression in E. coli": "not soluble"},
      {"sequence": "MINETKYMRQQITNLIQIIDTIKYNTLMTDWNIQTHIYKFNQIVTNELNKFKGFETSYIINENQVSYYEIITLLNKRPLRQVDYGNKIQYLNFYHTELSNALFAIKFAHLEHHHHHH", "soluble on expression in E. coli": "not soluble"},
      {"sequence": "MINHLSAIDDIADAEQIRVLFYASNRMVHAPLNKVLDLIKNDTQRDLLSALTQYQEATEQRIETLQKNLDALRLQVSLSTHNLKK", "soluble on expression in E. coli": "not soluble"},
      {"sequence": "MINIVIPMAGAGSRFAQAGYKKPKPFIDVLGRPMICHVLDNLNMPDARFILLTRKEHFENEQETVNWIKSKYNVEFVLIDNLTEGAACTVLHAHKLIDNNTPLLIANSDQIVDMNIAEFINDSENRNLDGSVLCFKDHDTKWSYAKIDGEGLITEIREKVVISEFATVGIYYFAKGGFFVKNAIDMIIRNERVKNEFYVAPVYNFGIQEGLKFGIFNININQMHGIGTPTDLNVYIDLVQRNKLEHHHHHH", "soluble on expression in E. coli": "soluble"},
      {"sequence": "MINLELGKDFLDRFTKVCEFLRVEPSLDVVVFECESLEEFHEITGMPYHTGGVYHEGVIYTQPLDVLRRKNSLEATILHELLHHVLEMYFDLPRWMEEGVVLAVLGVKPEEVFGYHRDCLLRFMEKVRYEEIPDLVDRYRRSSVERRLEHHHHHH", "soluble on expression in E. coli": "soluble"},
      {"sequence": "MINMKALVGGIILPVSSPPIKNGVLLFDEESGKIVAVGKKEEVTIPEDAEIIEAPGKYISPGFVDAHSHIGMIPDGLEWEFQEANDFYSPIAPHLRAVDGFDPYDEAFKEAIAGGVTTVATGPGSANVMGGIGLLAKTYEEGFEKIIKPEAFIKMALGPKRPREYKSKYPYPTTRMGTVALMRTWFKRAREFMEGKIKTDNIDEEEIEMLRLLARALKREIQVKIHLSTSPDEIYAAIRIIKEFNLNATIDHAFGSQLVADMLSREGIPVIYGPPMITRIASFFRYVDDKAPVLLFKKGVNVSIMTDHPVLPEKHLRLLAAVVARNGLSLDDALKLITINPAKALGIDRFVGSLEPGKDADIVISSDHPIKPTSKIEIVFGRGREVYKAD", "soluble on expression in E. coli": "soluble"},
      {"sequence": "MIQSDLDLFGPQPQRLASHTVLLPGFALAETEALLDALRPVLRAAPFRHMYTPGGLRMAVALTNCGTLGWVSDQHGYRYSPSDPVSGQPWPALPPVLLALASRAAAMAGFDGFVPDACLVNHYLPGTRLSLHQDRDEQDFGQPIVSVSLGLPAVFLFGGLQRADKAQRIALSHGDVLVWGGVDRLRFHGVLPIKPGVHPRLGERRINLTLRKAGALEHHHHHH", "soluble on expression in E. coli": "not soluble"},
      {"sequence": "MIQSGKIYIRGRTVVFMIIRNEQDLEGLRKIGRIVALAREEMKKEAKPGMTTKELDLIGKKVLDEHGAISAPEKEYDFPGVTCISVNEEVAHGIPGDRVLKEGDLVNVDVSAALDGYYADTGISFVLGEDEAKEKLCQAAVDAFWAAMKKVKAGSKQNQIGRAVSNFAHKNGYNVIQNLTGHGIGLSLHEAPNHILSYFDPMDNALLKDGLVIAVEPFISMKADHIIERGDDGWTFVTPDKSLVAQCEHTVVVTRGEPIILTEI", "soluble on expression in E. coli": "soluble"},
      {"sequence": "MIQTKDIIELTDTYGANNYHPLPIVISKAEGVWVEDPEGNRYMDLLSAYSAVNQGHRHPKIINALIDQANRVTLTSRAFHSDQLGPWYEKVAKLTNKEMVLPMNTGAEAVETAIKTARRWAYDVKKVEANRAEIIVCEDNFHGRTMGAVSMSSNEEYKRGFGPMLPGIIVIPYGDLEALKAAITPNTAAFILEPIQGEAGINIPPAGFLKEALEVCKKENVLFVADEIQTGLGRTGKVFACDWDNVTPDMYILGKALGGGVFPISCAAANRDILGVFEPGSHGSTFGGNPLACAVSIAALEVLEEEKLTERSLQLGEKLVGQLKEIDNPMITEVRGKGLFIGIELNEPARPYCEQLKAAGLLCKETHENVIRIAPPLVISEEDLEWAFQKIKAVLS", "soluble on expression in E. coli": "not soluble"},
      {"sequence": "MIRAVHSAAIVLLVFSYMAEFSGAASGGYAPASVGTQPVGTSFRDRLADGSPGPVMVVIPPGRFRMGAIFGGGDPDEKPVHEVSIPRAFAIGAYEVTFAEYDRFCEATGREKPKDGRRWFGPLSRNWGRGNKPAMNVSWDDAVAYVKWLSDQTGHRYRLPSEAEWEYAARGGKDTPYWWGGTVGQNKANCKGCGSRWDKKITAPVGSFAPNPYGMFDTAGNVWEWCVDTWHESYDGAPADGSPWIGGEDSRRVQRGGSFGSKPRYIRSSARGRGAQDGRYVYLGFRVVRELLEHHHHHH", "soluble on expression in E. coli": "not soluble"},
      {"sequence": "MIRFEHVSKAYLGGRQALQGVTFHMRPGEMAFLTGHSGAGKSTLLKLICGIERPSAGKIFFSGHDITRLKNREVPFLRRQIGMIFQDHHLLMDRTVYDNVAIPLIIAGASGDDIRRRVSAALDKVGLLDKARNFPIQLSGGEQQRVGIARAVVNKPAVLLADEPTGNLDDALSEGILRLFEEFNRVGVTVLMATHDIGLISRRSYRQLVLSDGHLHGGLANE", "soluble on expression in E. coli": "not soluble"},
      {"sequence": "MIRHFKHKGLQLFFETGDKSGIRPDHASRLARQLRQLNDAVNPREMNIPGWKLHPLSGDLSGYWSVMVNGNWRMIFVFDGEDVILVDYRDDH", "soluble on expression in E. coli": "not soluble"},
      {"sequence": "MIRKDLQKLEQEGLLKRTYGGAILERQTIHDDNIRPRLMKNLGEKDIIAKLALKEIKDGDFIFLDASTTNYSIASMLLNTKKQVTVVTNMNRIAILFDSHPSIDVICIGGIYNKNLGGTIGSKAIEDVKSYRFHKAFVGVGGINLVEDFISNFNLEEASMKNAIIKSSLKTYLVAENEKFYTDGICEFAKCEDIDFIISDKKPNEEILKLLKERNISIIYLEHHHHHH", "soluble on expression in E. coli": "soluble"},
      {"sequence": "MIRLVAFDLDGTIGDTIPLCLAAFREATTPYVDHELSDDEIARTFGLNEEGMINQVVYGDSREKALNDFYVIYEEMHAILCPKPFEGMKTLIGQLHERNVIVVLITGKGIRSCDITLKQFGMDGCFDRIETGSSEKNRKSEAMKDILLYYGFKSNEMIYVGDAVSDIEACYFVKIQCLSAAWAASTDCEQLEKYNSGYVFSSVRLLRDFL", "soluble on expression in E. coli": "not soluble"},
      {"sequence": "MIRQTLWSDVAAPLQNAFQTNNSGNRPVLMMLGGYTFSLASLVYQELARVNEYRWAAIERYGQRDARQYTGPGDESIELPGIAYPDWQGQRASLDELRALAAQGKPLQLIDSNGLIHGWYVIERIEERQSDHHPNGTPRRIEFTLALQRVNDDHAVEATP", "soluble on expression in E. coli": "not soluble"},
      {"sequence": "MIRTLELAPHIEGGYFRQTKKASDTINLAGKGRALYTSIYFLLEETNPSHFHRLTADEIWYFHAGSPLTVHMITADGHYEAVTLGLDISKGQQLHYCVPKGTIWGSTVDKDDALVSCLVAPGFEFEDFELFERVDLLATYPEHKEMIERLTRYLEHHHHHH", "soluble on expression in E. coli": "not soluble"},
      {"sequence": "MIRWMNEPLWPFIERKKSMRNLVKYVGIGLLVMGLAACDDKDTNATAQGSVAESNATGNPVNLLDGKLSFSLPADMTDQSGKLGTQANNMHVWSDATGQKAVIVIMGDDPKEDLAVLAKRLEDQQRSRDPQLQVVTNKAIELKGHKMQQLDSIISAKGQTAYSSVILGNVGNQLLTMQITLPADDQQKAQTTAENIINTLVIQ", "soluble on expression in E. coli": "not soluble"},
      {"sequence": "MISAIILSGGKAERMGGEKSFRKSGNKYLIENIADMLIEMEIPFVTVFKNPRFMEKPEEEIEKQLYYYKKYHQTITWDFVPGMGPLIGMLSGMLNTKSQWVFLVPCDMPFITEESIINLLSFIKEAELNGYDCIVPKHKNGFIEPLFSLYHISSVNVLGMVVEEMLEQNRSFPIRRLIDELNPLYVDVDKIDKTCDIFINLNTLKELENACFDRLEHHHHHH", "soluble on expression in E. coli": "soluble"},
      {"sequence": "MISCFNRQCPTGTISYTVRAGDTLYLIAGRFNTTVEAILAANPGIVPERLYIGQVICVPYAQPPQPACPIGTSPYEIKSGDTLSKIAAKFNTTVGDILNANPGIIPEKLYVGQKICIPQPKSENPGCPTMNYYVIQKGDTLPAIAKIFNVTVQQLINANPGINPNALYVGQVICIPVAPSSVRIIVSIAAKTLSLYRDGRLVKSYPVATGKPTTPTPRGTFTIINKQVNPGGPFGTRWMGLSQPHYGIHGTNNPASIGTAASNGCIRMYNEDVNELFNLVSVGTPVTIY", "soluble on expression in E. coli": "soluble"},
      {"sequence": "MISGLSHITLIVKDLNKTTAFLQNIFNAEEIYSSGDKTFSLSKEKFFLIAGLWICIMEGDSLQERTYNHIAFQIQSEEVDEYTERIKALGVEMKPERPRVQGEGRSIYFYDFDNHLFELHAGTLEQRLKRYHE", "soluble on expression in E. coli": "soluble"}
    ]}
  ]
}
